Columns and labels:
[1] = system: neutrophil elastase activity; assay: Laser-induced vessel wall injury: neutrophil elastase activity; format: in vivo, mice (C57BL/6JRj); settings: iv bolus 20.5 mg/kg + infusion 3.7 mg/kg/h
Description: Ir-CPI was administered intravenously as a bolus (20.5 mg/kg) immediately followed by a continuous infusion at a rate of 3.7 mg/kg/h (see Table 1 below). Due to fast distribution and elimination of Ir-CPI in the mice (t1/2α=14 min and t1/2β=236 min), the combination of the bolus and the infusion was chosen in order to maintain a constant Ir-CPI concentration into the blood.
Vessel wall injury was induced with a Micropoint Laser System (Photonics Instruments) focused through the microscope objective, parfocal with the focal plane and aimed at the vessel wall, as previously described (Dubois et al., 2006). Typically, 1 or 2 pulses were required to induce vessel wall injury.
Multiple thrombi were studied in a single mouse, with new thrombi formed upstream of earlier thrombi to avoid any contribution from thrombi generated earlier in the animal under study. Laser-beam injuries were done at various time after the start of test-item administration (+5 min up to about 150 min after bolus administration of Ir-CPI or NaCl (control)).
Image analysis was performed using Slidebook 4.1 (Intelligent Imaging Innovations). Fluorescence data were captured digitally at up to 50 frames per second and analyzed as previously described (Falati et al., 2002). The kinetics of thrombus formation were analyzed by determining median fluorescence values over time in a minimum number of 20 thrombi. […]

[2] = system: neutrophils isolated from bone marrow of femurs of mice; assay: Neutrophil activation following incubation with TNFα (flow cytometry); format: cell-based, mice (C57BL/6)
Description: Neutrophils were isolated from the bone marrow of femurs of mice (C57BL/6) as previously described (Hu 2012), using FR-1-coupled magnetic beads (anti-Ly6G Microbead Kit, Miltenyi Biotec). For activation with TFNα, cells were harvested, centrifugated and incubated during 30 min with or without 2 ng/ml of TNFα in Hanks solution (Gibco). Next, neutrophils were incubated with Ir-CPI (0.65 or 2 μM) in Hanks solution (1 h at 37° C.). For activation with ATP, cells were harvested, centrifugated and incubated with ATP 10 μM and Ir-CPI (0.65 or 2 μM) in Hanks solution (1 h at 37° C.). After washing of cells, expression of CD11b, activated CD11b or Ly6G was assessed by flow cytometry (Beckman Coulter Gallios). Antibodies used for neutrophil identification and activation analyses were IRR IgG1-FITC (irrelevant antibody), anti-CD45-APC, anti-Ly6G-PE and anti-CD11b-FITC or Alexa Fluor 647 anti-activated CD11b-. Analysis of results was performed using the Kaluza software (Beckman Coulter). […]
Neutrophils isolated from bone marrow of femurs of mice were submitted to different in vitro experimental conditions (untreated control, priming with TNFα and/or incubation with Ir-CPI) to assess the effect of Ir-CPI on their activation status. The activation status was assessed by analyzing the percentage of CD11b expression at the surface of neutrophils (FIG. 16).

B1: Ir-CPI: Ixodes ricinus salivary gland polypeptide, contact phase inhibitor, MW=7660 Da; sequence SEQ ID NO: 1 or SEQ ID NO: 2 (protein)
chain: ANHKGRGRPAKCKLPPDDGPCRARIPSYYFDRKTKTCKEFMYGGCEGNENNFENITTCQEECRAKKV
In the case of B1, the “signal corresponding to neutrophil elastase activity compared to control mice” value [1] is reported as “drastically reduced”, the “CD11b expressed at cell surface” value ([2]; neutrophils primed with TNFα, Ir-CPI 2 μM, *p<0.05) is reported as “significant reduction” and the “expression of CD11b” value ([2]; untreated neutrophils, Ir-CPI 0.65 and 2 μM) is reported as “no effect”.
